According to US20150118286A1:

How the values were obtained:
[1] = molecular target: Mushroom tyrosinase (mushroom), C7FF04; experiment: cell-based or functional assay
[2] = molecular target: Human tyrosinase (human), P14679; experiment: cell-based or functional assay
Human tyrosinase (human), P14679, sequence (P14679 19-529): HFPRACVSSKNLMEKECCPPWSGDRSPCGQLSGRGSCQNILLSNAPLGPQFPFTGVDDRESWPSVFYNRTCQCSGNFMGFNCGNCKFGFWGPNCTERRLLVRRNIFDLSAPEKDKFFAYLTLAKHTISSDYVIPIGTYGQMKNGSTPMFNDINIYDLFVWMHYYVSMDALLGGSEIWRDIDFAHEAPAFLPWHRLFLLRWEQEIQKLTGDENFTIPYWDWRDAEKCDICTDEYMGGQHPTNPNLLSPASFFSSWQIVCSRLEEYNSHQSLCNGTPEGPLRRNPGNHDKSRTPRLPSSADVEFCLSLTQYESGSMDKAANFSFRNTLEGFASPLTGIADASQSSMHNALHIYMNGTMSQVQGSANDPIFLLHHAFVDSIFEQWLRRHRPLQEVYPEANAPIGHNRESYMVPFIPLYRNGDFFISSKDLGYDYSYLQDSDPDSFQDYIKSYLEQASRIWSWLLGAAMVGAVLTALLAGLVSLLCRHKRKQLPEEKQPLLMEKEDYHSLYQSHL

| IC50 [µM], mushroom tyrosinase inhibition (dopachrome OD 475 nm, L-tyrosine substrate) [1] [µM] | reduction of total melanin content in MNTI cells (3 days, peptide at twice the IC50) [2] [%] | Binder |
| --- | --- | --- |
| 1120 |  | RRFVCC (modifications not checked) [P15 peptide] |
|  | 38 | RRRYWYYR [P17 peptide] |
|  | 45 | RRWWRRYY [P16 peptide] |
|  | 41 | RRYWYWRR [P18 peptide] |
